From article PMC6722932 (Toxins, 2019) come the findings set out here.

The data set concerns the molecule itself. The data set can be described thus: negative-stain electron microscopy; 7 uM lysenin incubated with MLVs of SM/DOPC/cholesterol (1:2:1) for 30 min at 20 °C, with or without 10 mM DTT; fixed with 1% glutaraldehyde, stained with 2% uranyl acetate.

B1: lysenin^WT (natural protein)
chain: MSAKAAEGYEQIEVDVVAVWKEGYVYENRGSTSVDQKITITKGMKNVNSETRTVTATHSIGSTISTGDAFEIGSVEVSYSHSHEESQVSMTETEVYESKVIEHTITIPPTSKFTRWQLNADVGGADIEYMYLIDEVTPIGGTQSIPQVITSRAKIIVGRQIILGKTEIRIKHAERKEYMTVVSRKSWPAATLGHSKLFKFVLYEDWGGFRIKTLNTMYSGYEYAYSSDQGGIYFDQGTDNPKQRWAINKSLPLRHGDVVTFMNKYFTRSGLCYDDGPATNVYCLDKREDKWILEVVG
notes: also called recombinant lysenin; wild-type lysenin; source: E. coli BL21(DE3), purified (Ni Sepharose 6 Fast Flow)
For B1, the binding result is recorded as “binds”.
